The test concerns the target T1, recombinant form of the extracellular domain of HER2 (amino acids 23-652) (UniProt P04626 23-652).
T1 construct: HER2 (neu/ErbB2), extracellular domain, amino acids 23-652; Bought recombinant protein; also called rHER2; neu; source: bought: e-bioscience, UK
Description: SPR; competitive binding: fixed rHER2 concentration incubated 1 h with 5-, 50- and 500-fold excess of Herceptin, flowed over immobilised EPO. The following applies: both partners purified. In general terms: Surface plasmon resonance follows binding to a sensor surface in real time, without labels.

B1: Eosinophil Peroxidase (EPO) (enzyme)
chain 1: not shown
chain 2: VDCERTCAQLPPCFPIKIPPNDPRIKNQRDCIPFFRSAPSCPQNKNRVRNQINALTSFVDASMVYGSEVSLSLRLRNRTNYLGLLAINQRFQDNGRALLPFDNLHDDPCLLTNRSARIPCFLAGDTRSTETPKLAAMHTLFMREHNRLATELRRLNPRWNGDKLYNEARKIMGAMVQIITYRDFLPLVLGKARARRTLGHYRGYCSNVDPRVANVFTLAFRFGHTMLQPFMFRLDSQYRASAPNSHVPLSSAFFASWRIVYEGGIDPILRGLMATPAKLNRQDAMLVDELRDRLFRQVRRIGLDLAALNMQRSRDHGLPGYNAWRRFCGLSQPRNLAQLSRVLKNQDLARKFLNLYGTPDNIDIWIGAIAEPLLPGARVGPLLACLFENQFRRARDGDRFWWQKRGVFTKRQRKALSRISLSRIICDNTGITTVSRDIFRANIYPRGFVNCSRIPRLNLSAWRGT
notes: Eosinophil peroxidase, human, light chain of the mature enzyme; Eosinophil peroxidase, human, heavy chain of the mature enzyme; Native granule protein; source: purified from eosinophils of patients with marked eosinophilia (0.01 M HCl extraction, Sephadex G-50)
For B1, the binding result is reported as “binds”.

The record behind these values is paper PMC5070911 (Clinical Immunology (Orlando, Fla.), 2016).
